Laboratory results from patent publication US5763271A, “Vasodilatory and immune suppressant peptides” (The President and Fellows of Harvard College, priority 1994, dated 1998).
Where no end group is shown, it is not given here.

Experiments:
human macrophages = experiment: H2O2 production by IFN-γ activated macrophages (scopoletin fluorometric assay); type: cell-based; conditions: 3 hrs preincubation, IFN-γ 200 units/ml, 3 days
Experimental: Monocytes obtained by leukophoresis of healthy volunteers were purified on Ficoll-hypaque and Percoll (Pharmacia, Piscataway, N.J.) gradients and placed into microtiter well (5×10^5 /well) in RPMI-1640 (GIBCO, Grand Island, N.Y.) with 5% pooled normal human serum and 1% gentamycin (M. A. Bioproducts, Walkinville, Md.). The cells were greater than 95% macrophages as judged by esterase staining. […] After one day in culture, non-adherent cells were rinsed away and the macrophages were treated, e.g., with human CGRP, Calcitonin, or LP as described below. Following treatment, the macrophages were incubated for three days with a concentration of from 100 to 400 units interferon gamma (Amgen Biologicals, Thousand Oaks, Calif.), in medium with 15% pooled normal human serum, at which time the H2 O2 concentration in the cells was determined.
H2 O2 production by macrophages was determined by fluorometric assay using the fluorophore scopoletin (de la Harpe et al., J. Immunol. Methods 78: 323 (1985)). […] The amount of H2 O2 released per culture is determined as nanomoles H2 O2. […]
Human macrophage monolayers were pretreated for three hours with varying concentrations of human CGRP. […] The amount Of H2 O2 produced by the cells was then determined according to the above procedure. […]

Leishmania major = experiment: Exacerbation of cutaneous leishmaniasis (footpad lesion size); type: in vivo, CBA mice; conditions: 80 pg admixed with 10^5 L. major promastigotes, subcutaneous
Experimental: In order to assay for immunosuppressive activity, the recombinant LP protein described in subsection A above was tested for the ability to exacerbate infection of mice with Leishmania major substantially as described in Titus et al. (1988) Science 239, 1306 and Theodos et al. (1991) Infect. Immun. 59, 1592-1598.
Briefly, groups of 4 CBA mice each were injected subcutaneously in the footpad with 10^5 L. major promastigotes alone or 10^5 parasites admixed with 80 pg of LP protein. Lesion development was followed by measuring the increase in thickness of the injected footpad compared to the thickness of the contralateral uninjected control footpad.

RAW 264.7 cell line = experiment: Inhibition of nitric oxide production by LPS-stimulated macrophages (Greiss reaction); type: cell-based; conditions: 10^6 to 10^1 pg/ml; LPS 1 μg/ml; nitrite 2 hours later
Experimental: Macrophage cells from the RAW 264.7 cell line (Drapier et al. (1988) J. Immunol. 140:2829) were preincubated with various concentrations of LP protein as indicated in FIG. 8. The cells were then stimulated with 1 μg/ml lipopolysaccharide […] (LPS) and NO production was monitored 2 hours later by measuring nitrite in the supernatants of the cultures. Nitrite was measured by the method described in Ding et al. (1988) J. Immunol. 141:2407. Briefly, levels of nitrite in the supernatants of the cultures were assessed by the Greiss reaction as follows. 50 μl cell culture supernatants were mixed with 50 μl of Greiss reagent [1% sulfanilamide, 0.1% N-(1-naphthyl)ethyl-enediamine dihydrochloride in 2.5% phosphoric acid] and incubated at room temperature for 10 minutes. Absorbance was measured at 570 nm. Concentration of NO2 in the supernatant was determined by comparison to a standard curve generated with dilutions of NaNO2.

| Molecule | inhibition of H2O2 production by macrophages (human macrophages) | effect on Leishmania infection (size of footpad lesions) (Leishmania major) | NO production by macrophages preincubated with the protein (RAW 264.7 cell line) |
| --- | --- | --- | --- |
| calcitonin (CGNLSTCMLGTYTQDFNKFHTFPQTAIGVGAP; ends and bridges not checked; cysteine pairing not given here; UniProt P01258 85-116, looked up) [neuropeptide derived from the same gene as CGRP, available commercially] | to a degree similar to that seen with CGRP |  |  |
| recombinant LP protein: LP protein, substantially the amino acid sequence of SEQ ID NO:4, expressed in E. coli as a polyHis fusion protein (protein, polyHis tag) MKYSLNNLHFLVDVAEGCDATCQFRKAIEDCRKKAHHSDVLQTSVQTTATFTSMDTSQLPGSGVFKECMKEKAKEFKAGK |  | greatly exacerbated | significant decrease |
